Among the data in patent US20090317428A1 are inhibition of T-helper cell line activation by Awells-Ii-cyclin D1 transfectants values, retold here.

This test has as its target HLA-DR molecules of the human B-lymphoblastoid cell line Awells (HLA-DRB1*0401, HLA-DRB4*0101) (human). Put plainly: cell-based or functional assay.

B1: L243 (anti-HLA-DR) (antibody, from another filing, V domains shown)
VH: QIQLVQSGPELKKPGETVKISCKASGFTFTNYGMNWVKQAPGKGLKWMGWINTYTREPTYADDFKGRFAFSLETSASTAYLQINNLKNEDTAKYFCARDITAVVPTGFDYWGQGTTLTVSS
VL: DIQMTQSPASLSVSVGETVTITCRASENIYSNLAWYRQKQGKSPQLLVFAASNLADGVPSRFSGSGSGTQYSLKINSLQSEDFGDYYCQHFWTTPWAFGGGTNLEIKR
B1 had an inhibition of T-helper cell line activation by Awells-Ii-cyclin D1 transfectants of 71.2%.
